# Results reported in article PMC11574045, “A cofactor-induced repressive type of transcription factor condensation can be induced by synthetic peptides to suppress tumorigenesis” (The EMBO Journal, 2024).
# B1: LIN28 (protein, UniProt Q9H9Z2 2-209, looked up)
# Protein lin-28 homolog A: GSVSNQQFAGGCAKAAEEAPEEAPEDAARAADEPQLLHGAGICKWFNVRMGFGFLSMTARAGVALDPPVDVFVHQSKLHMEGFRSLKEGEAVEFTFKKSAKGLESIRVTGPGGVFCIGSERRPKGKSMQKRRSKGDRCYNCGGLDHHAKECKLPPQPKKCHFCQSISHMVASCPLKAQQGPSAQGKPTYFREEEEEIHSPTLLPEAQN
# B2: LBX2 (protein, UniProt Q9WUN8 1-195, looked up)
# Transcription factor LBX2: MNSVHQRRTPFSIADILGPSMVPEAPSAPQLPEAGPDPASPLCALEELASKTFLGHSPRATPQPSEGRAAPEAPPGPGAGVRRRRKSRTAFTAQQVLELERRFVFQKYLAPSERDGLAARLGLANAQVVTWFQNRRAKLKRDVEEMRADVASLCGLSPGVLCYPALPDSTSSPDPGPSGPDSEPNLSDEEIQVDD
# B3: LIN28B (protein, UniProt Q6ZN17 1-250, looked up)
# Protein lin-28 homolog B: MAEGGASKGGGEEPGKLPEPAEEESQVLRGTGHCKWFNVRMGFGFISMINREGSPLDIPVDVFVHQSKLFMEGFRSLKEGEPVEFTFKKSSKGLESIRVTGPGGSPCLGSERRPKGKTLQKRKPKGDRCYNCGGLDHHAKECSLPPQPKKCHYCQSIMHMVANCPHKNVAQPPASSQGRQEAESQPCTSTLPREVGGGHGCTSPPFPQEARAEISERSGRSPQEASSTKSSIAPEEQSKKGPSVQKRKKT
# B4: LMO1 (protein, UniProt P25800 1-156, looked up)
# Rhombotin-1: MMVLDKEDGVPMLSVQPKGKQKGCAGCNRKIKDRYLLKALDKYWHEDCLKCACCDCRLGEVGSTLYTKANLILCRRDYLRLFGTTGNCAACSKLIPAFEMVMRARDNVYHLDCFACQLCNQRFCVGDKFFLKNNMILCQMDYEEGQLNGTFESQVQ
# B5: LASS6 (protein, UniProt Q6ZMG9 1-384, looked up)
# Ceramide synthase 6: MAGILAWFWNERFWLPHNVTWADLKNTEEATFPQAEDLYLAFPLAFCIFMVRLIFERFVAKPCAIALNIQANGPQIAPPNAILEKVFTAITKHPDEKRLEGLSKQLDWDVRSIQRWFRQRRNQEKPSTLTRFCESMWRFSFYLYVFTYGVRFLKKTPWLWNTRHCWYNYPYQPLTTDLHYYYILELSFYWSLMFSQFTDIKRKDFGIMFLHHLVSIFLITFSYVNNMARVGTLVLCLHDSADALLEAAKMANYAKFQKMCDLLFVMFAVVFITTRLGIFPLWVLNTTLFESWEIVGPYPSWWVFNLLLLLVQGLNCFWSYLIVKIACKAVSRGKVSKDDRSDIESSSDEEDSEPPGKNPHTATTTNGTSGTNGYLLTGSCSMDD
# B6: LEF1 (protein, UniProt Q9UJU2 1-399, looked up)
# Lymphoid enhancer-binding …: MPQLSGGGGGGGGDPELCATDEMIPFKDEGDPQKEKIFAEISHPEEEGDLADIKSSLVNESEIIPASNGHEVARQAQTSQEPYHDKAREHPDDGKHPDGGLYNKGPSYSSYSGYIMMPNMNNDPYMSNGSLSPPIPRTSNKVPVVQPSHAVHPLTPLITYSDEHFSPGSHPSHIPSDVNSKQGMSRHPPAPDIPTFYPLSPGGVGQITPPLGWQGQPVYPITGGFRQPYPSSLSVDTSMSRFSHHMIPGPPGPHTTGIPHPAIVTPQVKQEHPHTDSDLMHVKPQHEQRKEQEPKRPHIKKPLNAFMLYMKEMRANVVAECTLKESAAINQILGRRWHALSREEQAKYYELARKERQLHMQLYPGWSARDNYGKKKKRKREKLQESASGTGPRMTAAYI
# B7: LHX3 (protein, UniProt Q9UBR4 1-397, looked up)
# LIM/homeobox protein Lhx3: MLLETGLERDRARPGAAAVCTLGGTREIPLCAGCDQHILDRFILKALDRHWHSKCLKCSDCHTPLAERCFSRGESVYCKDDFFKRFGTKCAACQLGIPPTQVVRRAQDFVYHLHCFACVVCKRQLATGDEFYLMEDSRLVCKADYETAKQREAEATAKRPRTTITAKQLETLKSAYNTSPKPARHVREQLSSETGLDMRVVQVWFQNRRAKEKRLKKDAGRQRWGQYFRNMKRSRGGSKSDKDSVQEGQDSDAEVSFPDEPSLAEMGPANGLYGSLGEPTQALGRPSGALGNFSLEHGGLAGPEQYRELRPGSPYGVPPSPAAPQSLPGPQPLLSSLVYPDTSLGLVPSGAPGGPPPMRVLAGNGPSSDLSTGSSGGYPDFPASPASWLDEVDHAQF
# B8: LITAF (protein, UniProt Q99732 1-161, looked up)
# Lipopolysaccharide-induced …: MSVPGPYQAATGPSSAPSAPPSYEETVAVNSYYPTPPAPMPGPTTGLVTGPDGKGMNPPSYYTQPAPIPNNNPITVQTVYVQHPITFLDRPIQMCCPSCNKMIVSQLSYNAGALTWLSCGSLCLLGCIAGCCFIPFCVDALQDVDHYCPNCRALLGTYKRL
# B9: LMCD1 (protein, UniProt Q9NZU5 1-365, looked up)
# LIM and cysteine-rich domains …: MAKVAKDLNPGVKKMSLGQLQSARGVACLGCKGTCSGFEPHSWRKICKSCKCSQEDHCLTSDLEDDRKIGRLLMDSKYSTLTARVKGGDGIRIYKRNRMIMTNPIATGKDPTFDTITYEWAPPGVTQKLGLQYMELIPKEKQPVTGTEGAFYRRRQLMHQLPIYDQDPSRCRGLLENELKLMEEFVKQYKSEALGVGEVALPGQGGLPKEEGKQQEKPEGAETTAATTNGSLSDPSKEVEYVCELCKGAAPPDSPVVYSDRAGYNKQWHPTCFVCAKCSEPLVDLIYFWKDGAPWCGRHYCESLRPRCSGCDEIIFAEDYQRVEDLAWHRKHFVCEGCEQLLSGRAYIVTKGQLLCPTCSKSKRS
# B10: LMX1B (protein, UniProt O60663 1-402, looked up)
# LIM homeobox transcription …: MDIATGPESLERCFPRGQTDCAKMLDGIKMEEHALRPGPATLGVLLGSDCPHPAVCEGCQRPISDRFLMRVNESSWHEECLQCAACQQALTTSCYFRDRKLYCKQDYQQLFAAKCSGCMEKIAPTEFVMRALECVYHLGCFCCCVCERQLRKGDEFVLKEGQLLCKGDYEKEKDLLSSVSPDESDSVKSEDEDGDMKPAKGQGSQSKGSGDDGKDPRRPKRPRTILTTQQRRAFKASFEVSSKPCRKVRETLAAETGLSVRVVQVWFQNQRAKMKKLARRHQQQQEQQNSQRLGQEVLSSRMEGMMASYTPLAPPQQQIVAMEQSPYGSSDPFQQGLTPPQMPGDHMNPYGNDSIFHDIDSDTSLTSLSDCFLGSSDVGSLQARVGNPIDRLYSMQSSYFAS
# B11: LASS4 (protein, UniProt Q9HA82 1-394, looked up)
# Ceramide synthase 4: MLSSFNEWFWQDRFWLPPNVTWTELEDRDGRVYPHPQDLLAALPLALVLLAMRLAFERFIGLPLSRWLGVRDQTRRQVKPNATLEKHFLTEGHRPKEPQLSLLAAQCGLTLQQTQRWFRRRRNQDRPQLTKKFCEASWRFLFYLSSFVGGLSVLYHESWLWAPVMCWDRYPNQTLKPSLYWWYLLELGFYLSLLIRLPFDVKRKDFKEQVIHHFVAVILMTFSYSANLLRIGSLVLLLHDSSDYLLEACKMVNYMQYQQVCDALFLIFSFVFFYTRLVLFPTQILYTTYYESISNRGPFFGYYFFNGLLMLLQLLHVFWSCLILRMLYSFMKKGQMEKDIRSDVEESDSSEEAAAAQEPLQLKNGAAGGPRPAPTDGPRSRVAGRLTNRHTTAT
# B12: LHX2 (protein, UniProt P50458 1-406, looked up)
# LIM/homeobox protein Lhx2: MLFHSLSGPEVHGVIDEMDRRAKSEAPAISSAIDRGDTETTMPSISSDRAALCAGCGGKISDRYYLLAVDKQWHMRCLKCCECKLNLESELTCFSKDGSIYCKEDYYRRFSVQRCARCHLGISASEMVMRARDLVYHLNCFTCTTCNKMLTTGDHFGMKDSLVYCRLHFEALLQGEYPAHFNHADVAAAAAAAAAAKSAGLGAAGANPLGLPYYNGVGTVQKGRPRKRKSPGPGADLAAYNAALSCNENDAEHLDRDQPYPSSQKTKRMRTSFKHHQLRTMKSYFAINHNPDAKDLKQLAQKTGLTKRVLQVWFQNARAKFRRNLLRQENTGVDKSTDAALQTGTPSGPASELSNASLSPSSTPTTLTDLTSPTLPTVTSVLTSVPGNLEGHEPHSPSQTTLTNLF
# Tested on: HEK293FT cells transfected with TF library
# Assay: Screening of TF condensates based on fluorescent puncta
# Type: cell-based
# Conditions: Figure 1B numerical data; TF library screen, one value per transcriptional factor
# Procedure, shortened: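 Condensate formation is scored as Alexa 488-labelled puncta after Flag- or GAL4-tag immunostaining of fixed HEK293FT cells expressing individual TFs, with a 12 h glucose-free or glucose-containing culture preceding fixation.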
row,Molecule,Z score of condensed fraction
1,B1,-0.1683
2,B2,-0.9162
3,B3,-0.9223
4,B4,0.976
5,B5,-0.6196
6,B6,0.2503
7,B7,-0.2379
8,B8,0.004705
9,B9,2.397
10,B10,0.1118
11,B11,-0.3767
12,B12,0.8007
